Measurements reported in article PMC8564726 (2021).

Assays:
[1] = biological target: H3K9me1 monomethylated mononucleosome (methyl-lysine analog), 147 bp 601 DNA 5'-fluorescein-labeled (monomethyl-lysine analog (MLA) at K9); assay: FP
H3K9me0 peptide [2] = biological target: T1, H3K9me0 peptide (Homo sapiens, unmethylated K9; fluorescein label; H3(1-20) in mature numbering (initiator Met removed)); assay: FP; MBP-tagged full-length G9a; lower limit, no saturation
[3] = biological target: H3K9me2 dimethylated mononucleosome (methyl-lysine analog), 147 bp 601 DNA 5'-fluorescein-labeled (dimethyl-lysine analog (MLA) at K9); assay: FP
H3K9me0 peptide [4] = biological target: T1, H3K9me0 peptide; assay: FP; lower limit, no saturation
[5] = biological target: unmethylated mononucleosome (H3K9me0), 147 bp 601 DNA 5'-fluorescein-labeled; assay: FP

Row | Binder | Kd [1] | Kd [3] | further results
1 | GLP ANK-SET homodimer (complex) QEKSLAAEGRADTTTGSIAGAPEDERSQSTAPQAPECFDPAGPAGLVRPTSGLSQGPGKETLESALIALDSEKPKKLRFHPKQLYFSARQGELQKVLLMLVDGIDPNFKMEHQSKRSPLHAAAEAGHVDICHMLVQAGANIDTCSEDQRTPLMEAAENNHLDAVKYLIKAGAQVDPKDAEGSTCLHLAAKKGHYDVVQYLLSNGQMDVNCQDDGGWTPMIWATEYKHVELVKLLLSKGSDINIRDNEENICLHWAAFSGCVDIAEILLAAKCDLHAVNIHGDSPLHIAARENRYDCVVLFLSRDSDVTLKNKEGETPLQCASLSSQVWSALQMSKALRDSAPDKPVAVEKTVSRDIARGYERIPIPCVNAVDSELCPTNYKYVSQNCVTSPMNIDRNITHLQYCVCVDDCSSSTCMCGQLSMRCWYDKDGRLLPEFNMAEPPLIFECNHACSCWRNCRNRVVQNGLRARLQLYRTQDMGWGVRSLQDIPLGTFVCEYVGELISDSEADVREEDSYLFDLDNKDGEVYCIDARFYGNVSRFINHHCEPNLVPVRVFMSHQDLRFPRIAFFSTRLIQAGEQLGFDYGERFWDVKGKLFSCRCGSSKCRHSSAALAQRQASAAQEPQENGLPDTSSAAAADPL | 5 µM | – | –
2 | full-length G9a (enzyme) MRGLPRGRGLMRARGRGRAAPTGGRGRGRGGAHRGRGRPRSLLSLPRAQASWAPQLPAGLTGPPVPCLPSQGEAPAEMGALLLEKEPRGAAERVHSSLGDTPQSEETLPKANPDSLEPAGPSSPASVTVTVGDEGADTPVGAASLIGDEPESLEGDGGRIVLGHATKSFPSSPSKGGACPSRAKMSMTGAGKSPPSVQSLAMRLLSMPGAQGAATAGPEPSPATTAAQEGQPKVHRARKTMSKPSNGQPPIPEKRPPEVQHFRMSDDMHLGKVTSDVAKRRKLNSGSLSEDLGSAGGSGDIILEKGEPRPLEEWETVVGDDFSLYYDAYSVDERVDSDSKSEVEALAEQLSEEEEEEEEEEEEEEEEEEEEEEEEEDEESGNQSDRSGSSGRRKAKKKWRKDSPWVKPSRKRRKREPPRAKEPRGVNGVGSSGPSEYMEVPLGSLELPSEGTLSPNHAGVSNDTSSLETERGFEELPLCSCRMEAPKIDRISERAGHKCMATESVDGELLGCNAAILKRETMRPSSRVALMVLCEAHRARMVKHHCCPGCGYFCTAGTFLECHPDFRVAHRFHKACVSQLNGMVFCPHCGEDASEAQEVTIPRGDGGTPPIGTAAPALPPLAHDAPGRADTSQPSARMRGHGEPRRPPCDPLADTIDSSGPSLTLPNGGCLSAVGLPPGPGREALEKALVIQESERRKKLRFHPRQLYLSVKQGELQKVILMLLDNLDPNFQSDQQSKRTPLHAAAQKGSVEICHVLLQAGANINAVDKQQRTPLMEAVVNNHLEVARYMVQLGGCVYSKEEDGSTCLHHAAKIGNLEMVSLLLSTGQVDVNAQDSGGWTPIIWAAEHKHIDVIRMLLTRGADVTLTDNEENICLHWASFTGSAAIAEVLLNAQCDLHAVNYHGDTPLHIAARESYHDCVLLFLSRGANPELRNKEGDTAWDLTPERSDVWFALQLNRKLRLGVGNRAVRTEKIICRDVARGYENVPIPCVNGVDGEPCPEDYKYISENCETSTMNIDRNITHLQHCTCVDDCSSSNCLCGQLSIRCWYDKDGRLLQEFNKIEPPLIFECNQACSCWRSCKNRVVQSGIKVRLQLYRTAKMGWGVRALQTIPQGTFICEYVGELISDAEADVREDDSYLFDLDNKDGEVYCIDARYYGNISRFINHLCDPNIIPVRVFMLHQDLRFPRIAFFSSRDIRTGEELGFDYGDRFWDIKSKYFTCQCGSEKCKHSAEAIALEQSRLARLDPHPELLPDLSSLPPINT | – | – | Kd (H3K9me0 peptide [2]): > 66 µM
3 | G9a ANK-SET homodimer (complex) DAPGRADTSQPSARMRGHGEPRRPPCDPLADTIDSSGPSLTLPNGGCLSAVGLPPGPGREALEKALVIQESERRKKLRFHPRQLYLSVKQGELQKVILMLLDNLDPNFQSDQQSKRTPLHAAAQKGSVEICHVLLQAGANINAVDKQQRTPLMEAVVNNHLEVARYMVQLGGCVYSKEEDGSTCLHHAAKIGNLEMVSLLLSTGQVDVNAQDSGGWTPIIWAAEHKHIDVIRMLLTRGADVTLTDNEENICLHWASFTGSAAIAEVLLNAQCDLHAVNYHGDTPLHIAARESYHDCVLLFLSRGANPELRNKEGDTAWDLTPERSDVWFALQLNRKLRLGVGNRAVRTEKIICRDVARGYENVPIPCVNGVDGEPCPEDYKYISENCETSTMNIDRNITHLQHCTCVDDCSSSNCLCGQLSIRCWYDKDGRLLQEFNKIEPPLIFECNQACSCWRSCKNRVVQSGIKVRLQLYRTAKMGWGVRALQTIPQGTFICEYVGELISDAEADVREDDSYLFDLDNKDGEVYCIDARYYGNISRFINHLCDPNIIPVRVFMLHQDLRFPRIAFFSSRDIRTGEELGFDYGDRFWDIKSKYFTCQCGSEKCKHSAEAIALEQSRLARLDPHPELLPDLSSLPPINT | 14.8 µM | 18.4 µM | Kd (H3K9me0 peptide [4]): > 100 µM
4 | G9a-GLP ANK-SET heterodimer (complex) chain 1: DAPGRADTSQPSARMRGHGEPRRPPCDPLADTIDSSGPSLTLPNGGCLSAVGLPPGPGREALEKALVIQESERRKKLRFHPRQLYLSVKQGELQKVILMLLDNLDPNFQSDQQSKRTPLHAAAQKGSVEICHVLLQAGANINAVDKQQRTPLMEAVVNNHLEVARYMVQLGGCVYSKEEDGSTCLHHAAKIGNLEMVSLLLSTGQVDVNAQDSGGWTPIIWAAEHKHIDVIRMLLTRGADVTLTDNEENICLHWASFTGSAAIAEVLLNAQCDLHAVNYHGDTPLHIAARESYHDCVLLFLSRGANPELRNKEGDTAWDLTPERSDVWFALQLNRKLRLGVGNRAVRTEKIICRDVARGYENVPIPCVNGVDGEPCPEDYKYISENCETSTMNIDRNITHLQHCTCVDDCSSSNCLCGQLSIRCWYDKDGRLLQEFNKIEPPLIFECNQACSCWRSCKNRVVQSGIKVRLQLYRTAKMGWGVRALQTIPQGTFICEYVGELISDAEADVREDDSYLFDLDNKDGEVYCIDARYYGNISRFINHLCDPNIIPVRVFMLHQDLRFPRIAFFSSRDIRTGEELGFDYGDRFWDIKSKYFTCQCGSEKCKHSAEAIALEQSRLARLDPHPELLPDLSSLPPINT chain 2: QEKSLAAEGRADTTTGSIAGAPEDERSQSTAPQAPECFDPAGPAGLVRPTSGLSQGPGKETLESALIALDSEKPKKLRFHPKQLYFSARQGELQKVLLMLVDGIDPNFKMEHQSKRSPLHAAAEAGHVDICHMLVQAGANIDTCSEDQRTPLMEAAENNHLDAVKYLIKAGAQVDPKDAEGSTCLHLAAKKGHYDVVQYLLSNGQMDVNCQDDGGWTPMIWATEYKHVELVKLLLSKGSDINIRDNEENICLHWAAFSGCVDIAEILLAAKCDLHAVNIHGDSPLHIAARENRYDCVVLFLSRDSDVTLKNKEGETPLQCASLSSQVWSALQMSKALRDSAPDKPVAVEKTVSRDIARGYERIPIPCVNAVDSELCPTNYKYVSQNCVTSPMNIDRNITHLQYCVCVDDCSSSTCMCGQLSMRCWYDKDGRLLPEFNMAEPPLIFECNHACSCWRNCRNRVVQNGLRARLQLYRTQDMGWGVRSLQDIPLGTFVCEYVGELISDSEADVREEDSYLFDLDNKDGEVYCIDARFYGNVSRFINHHCEPNLVPVRVFMSHQDLRFPRIAFFSTRLIQAGEQLGFDYGERFWDVKGKLFSCRCGSSKCRHSSAALAQRQASAAQEPQENGLPDTSSAAAADPL | 2.26 µM | 4.76 µM | –
5 | G9aS-GLP (protein) chain 1: AHDAPGRADTSQPSARMRGHGEPRRPPCDPLADTIDSSGPSLTLPNGGCLSAVGLPPGPGREALEKALVIQESERRKKLRFHPRQLYLSVKQGELQKVILMLLDNLDPNFQSDQQSKRTPLHAAAQKGSVEICHVLLQAGANINAVDKQQRTPLMEAVVNNHLEVARYMVQLGGCVYSKEEDGSTCLHHAAKIGNLEMVSLLLSTGQVDVNAQDSGGWTPIIWAAEHKHIDVIRMLLTRGADVTLTDNEENICLHWASFTGSAAIAEVLLNAQCDLHAVNYHGDTPLHIAARESYHDCVLLFLSRGANPELRNKEGDTAWDLTPERSDVWFALQLNRKLRLGVGNRAVRTEKIICRDVARGYENVPIPCVNGVDGEPCPEDYKYISENCETSTMNIDRNITHLQHCTCVDDCSSSNCLCGQLSIRCWYDKDGRLLQEFNKIEPPLIFECNQACSCWRSCKNRVVQSGIKVRLQLYRTAKMGWGVRALQTIPQGTFICEVVGELISDAEADVREDDSYLFDLDNKDGEVYCIDARYYGNISRFINHLCDPNIIPVRVFMLHQDLRFPRIAFFSSRDIRTGEELGFDFGDRFWDIKSKYFTCQCGSEKCKHSAEAIALEQSRLARLDPHPELLPDLSSLPPINT chain 2: PGQEKSLAAEGRADTTTGSIAGAPEDERSQSTAPQAPECFDPAGPAGLVRPTSGLSQGPGKETLESALIALDSEKPKKLRFHPKQLYFSARQGELQKVLLMLVDGIDPNFKMEHQSKRSPLHAAAEAGHVDICHMLVQAGANIDTCSEDQRTPLMEAAENNHLDAVKYLIKAGAQVDPKDAEGSTCLHLAAKKGHYDVVQYLLSNGQMDVNCQDDGGWTPMIWATEYKHVELVKLLLSKGSDINIRDNEENICLHWAAFSGCVDIAEILLAAKCDLHAVNIHGDSPLHIAARENRYDCVVLFLSRDSDVTLKNKEGETPLQCASLSSQVWSALQMSKALRDSAPDKPVAVEKTVSRDIARGYERIPIPCVNAVDSELCPTNYKYVSQNCVTSPMNIDRNITHLQYCVCVDDCSSSTCMCGQLSMRCWYDKDGRLLPEFNMAEPPLIFECNHACSCWRNCRNRVVQNGLRARLQLYRTQDMGWGVRSLQDIPLGTFVCEYVGELISDSEADVREEDSYLFDLDNKDGEVYCIDARFYGNVSRFINHHCEPNLVPVRVFMSHQDLRFPRIAFFSTRLIQAGEQLGFDYGERFWDVKGKLFSCRCGSSKCRHSSAALAQRQASAAQEPQENGLPDTSSAAAADPL | – | – | Kd [5]: > 70 µM
